This note sets out measurements from paper PMC3826434 (Biochemistry, 2013).

By stoichiometry N is commonly meant the number of molecules, sites or subunits per partner or assembly.

The data set concerns the molecule itself. Description: native gel or EMSA. For orientation: Mobility shift assays separate free from complexed probe on a gel.

B1: CmlA, β-hydroxylase of the chloramphenicol biosynthetic pathway (wild type) (enzyme)
chain: MRYSLRQDIAVEPVIAGWYGWSYLLPPQTLARFVHNRFNRIVESYLDDPQVHAAAVRQRRMHGGPWIHAHEHRDAIEAWYRETAPRRERLDELFEAVRRLEEDILPRHHGECLDPVYQELPAALAGRVEVFYGRDNRTADYRFVEPLMYASEYYDESWQQVRFRPVTEDAREFALTTPMLEYGPEQLLVDVPLNSPLLDAVFRGGLTGTELDDLAARFGLDGERAARFASYFEPTPAASEAPAPASSSEEDVLEYVGHACVFARHRGTTFLVDPVLSYSGYPGGAENRFTFADLPERIDHLLITHNHQDHMLFETLLRIRHRVGRVLVPKSTNASLVDPGLGGILRRLGFTDVVEVDDLETLSCGSAEVVALPFLGEHGDLRIRSKTGWLIRFGERSVLFAADSTNISPTMYTKVAEVIGPVDTVFIGMESIGAAASWIYGPLYGEPLDRRTDQSRRLNGSNFPQAREIVDALEPDEVYVYAMGLEPWMGVVMAVDYDESHPAIVDSDLLVRHVQDKGGTAERLHLRRTLRL
Regarding B1, the “stoichiometry N” value was 2.
